B1: H2-Kb / Ed46 (parent complex)
chain 1: AQSVTQPDARVTVSEGASLQLRCKYSYFGTPYLFWYVQYPRQGLQLLLKYYPGDPVVQGVNGFEAEFSKSNSSFHLRKASVHWSDWAVYFCAVGRTGGYKVVFGSGTRLLVSP
chain 2: DSGVVQSPRHIIKEKGGRSVLTCIPISGHSNVVWYQQTLGKELKFLIQHYEKVERDKGFLPSRFSVQQFDDYHSEMNMSALELEDSAMYFCASSPRHSDYTFGSGTRLLVI
chain 3: not shown
chain 4: IQKTPQIQVYSRHPPENGKPNILNCYVTQFHPPHIEIQMLKNGKKIPKVEMSDMSFSKDWSFYILAHTEFTPTETDTYACRVKHDSMAEPKTVYWDRDM
chain 5: SIINFEKL
B2: H2-Kb / B15 (parent complex)
chain 1: QQQVRQSPQSLTVWEGETAILNCSYENSAFDYFPWYQQFPGEGPALLISILSVSDKKEDGRFTIFFNKREKKLSLHIADSQPGDSATYFCAASAASNNRLTLGKGTQVVVLP
chain 2: DSGVVQSPRHIIKEKGGRSVLTCIPISGHSNVVWYQQTLGKELKFLIQHYEKVERDKGFLPSRFSVQQFDDYHSEMNMSALELEDSAMYFCASSRRADAEQFFGPGTRLTVL
chain 3: not shown
chain 4: B1 chain 4
chain 5: SIINFEKL

Variants of: B1
Assay: % of reporter cells activated (NFAT-GFP), raw
Note: test concentration or dose not given here.

Variant	ratio to parent
chain 5 I2S	1.4
chain 5 I2V	1.4
chain 5 F5H	1.23
chain 5 F5V	1.05
chain 5 S1K	0.328
chain 5 S1E	0.174
chain 5 S1I	0.0213
chain 5 S1F	0.018
chain 5 S1M	0.235
chain 5 L8M	1.08
chain 5 L8S	0.783
chain 5 L8T	1.01
chain 5 L8N	0.697
chain 5 L8H	0.912
chain 5 L8D	0.618
chain 5 E6D	1.02
chain 5 E6Q	0.475
chain 5 E6V	0.0112
chain 5 E6G	0.355
chain 5 E6S	0.249
chain 5 N4F	0.0192
chain 5 N4S	0.00601
chain 5 I3N	0.34
chain 5 K7G	0.341
chain 5 K7V	0.353
chain 5 K7H	0.74
chain 5 K7R	0.814
chain 5 K7P	0.349

Variants of: B2
Assay: % of reporter cells activated (NFAT-GFP), raw

Variant	ratio to parent
chain 5 S1T	0.487
chain 5 S1K	0.591
chain 5 S1Y	0.727
chain 5 S1N	0.416
chain 5 S1H	0.517
chain 5 S1D	0.898
chain 5 S1M	0.601
chain 5 S1P	0.545
chain 5 S1R	1.03
chain 5 S1W	0.383
chain 5 S1F	0.144
chain 5 S1L	0.456
chain 5 S1G	0.669
chain 5 S1C	0.577
chain 5 S1Q	0.961
chain 5 S1I	0.115
chain 5 S1V	0.199
chain 5 E6H	0.241
chain 5 E6V	0.0123
chain 5 E6I	0.00958
chain 5 E6F	0.13
chain 5 E6G	0.491
chain 5 E6A	0.205
chain 5 E6L	0.0519
chain 5 E6D	0.956

Variant	ratio to parent
chain 5 E6Y	0.15
chain 5 E6S	0.221
chain 5 E6N	0.195
chain 5 I3S	0.601
chain 5 I3Y	0.0196
chain 5 I3N	0.0985
chain 5 I3K	0.71
chain 5 I3L	0.812
chain 5 I3P	0.982
chain 5 I3Q	0.743
chain 5 I3F	0.0424
chain 5 I3D	0.503
chain 5 I3M	0.891
chain 5 I3W	0.479
chain 5 I3H	0.491
chain 5 I3C	0.607
chain 5 I3A	0.5
chain 5 I3T	0.273
chain 5 L8K	0.801
chain 5 L8H	0.905
chain 5 L8A	0.833
chain 5 L8V	0.901
chain 5 L8N	0.844
chain 5 L8M	0.955
chain 5 L8S	0.802

Variant	ratio to parent
chain 5 L8I	0.934
chain 5 L8R	0.904
chain 5 L8Q	0.784
chain 5 L8F	0.907
chain 5 L8C	0.767
chain 5 L8G	0.75
chain 5 L8P	0.75
chain 5 L8E	0.741
chain 5 L8D	0.692
chain 5 K7D	0.117
chain 5 K7P	0.377
chain 5 K7Y	0.383
chain 5 K7R	0.928
chain 5 K7C	0.0553
chain 5 K7N	0.27
chain 5 K7S	0.774
chain 5 K7T	0.124
chain 5 K7I	0.0863
chain 5 K7H	0.291
chain 5 K7V	0.454
chain 5 K7M	0.155
chain 5 K7A	0.359
chain 5 K7E	0.0434
chain 5 F5I	0.818
chain 5 F5G	0.792

Variant	ratio to parent
chain 5 F5T	1.03
chain 5 F5D	0.553
chain 5 F5K	0.698
chain 5 F5Q	0.579
chain 5 F5A	0.953
chain 5 F5P	0.829
chain 5 F5V	0.999
chain 5 F5M	0.836
chain 5 F5W	0.981
chain 5 F5C	0.834
chain 5 F5S	0.969
chain 5 F5Y	0.952
chain 5 F5E	0.531
chain 5 F5L	0.775
chain 5 F5N	0.673
chain 5 N4K	0.21
chain 5 N4Q	0.0132
chain 5 N4V	0.028
chain 5 N4L	0.391
chain 5 N4A	0.0258
chain 5 N4D	0.0675
chain 5 N4M	0.00683
chain 5 N4I	0.194
chain 5 N4E	0.26
chain 5 N4T	0.01

Variant	ratio to parent
chain 5 N4S	0.0135
chain 5 N4F	0.202
chain 5 N4H	0.089
chain 5 N4Y	0.151
chain 5 N4G	0.184
chain 5 N4W	0.0638
chain 5 I2C	0.934
chain 5 I2V	1
chain 5 I2S	0.959
chain 5 I2R	0.972
chain 5 I2H	0.9
chain 5 I2D	0.987
chain 5 I2W	0.811
chain 5 I2N	0.974
chain 5 I2E	0.915
chain 5 I2M	0.89
chain 5 I2F	0.882
chain 5 I2G	0.917
chain 5 I2T	1.02
chain 5 I2L	1.03
chain 5 I2Q	0.85
chain 5 I2Y	0.764
